Values quoted from earlier work in article PMC4487222.
pKd: −log10 of the molar value.

Molecular target: CheY (Thermotoga maritima) (UniProt Q56312)
Sequence (Q56312 whole entry): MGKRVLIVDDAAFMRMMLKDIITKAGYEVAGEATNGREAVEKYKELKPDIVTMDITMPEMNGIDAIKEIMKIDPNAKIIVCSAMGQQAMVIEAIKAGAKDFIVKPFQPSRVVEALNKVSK

Chain of CheA (Q56310 whole entry): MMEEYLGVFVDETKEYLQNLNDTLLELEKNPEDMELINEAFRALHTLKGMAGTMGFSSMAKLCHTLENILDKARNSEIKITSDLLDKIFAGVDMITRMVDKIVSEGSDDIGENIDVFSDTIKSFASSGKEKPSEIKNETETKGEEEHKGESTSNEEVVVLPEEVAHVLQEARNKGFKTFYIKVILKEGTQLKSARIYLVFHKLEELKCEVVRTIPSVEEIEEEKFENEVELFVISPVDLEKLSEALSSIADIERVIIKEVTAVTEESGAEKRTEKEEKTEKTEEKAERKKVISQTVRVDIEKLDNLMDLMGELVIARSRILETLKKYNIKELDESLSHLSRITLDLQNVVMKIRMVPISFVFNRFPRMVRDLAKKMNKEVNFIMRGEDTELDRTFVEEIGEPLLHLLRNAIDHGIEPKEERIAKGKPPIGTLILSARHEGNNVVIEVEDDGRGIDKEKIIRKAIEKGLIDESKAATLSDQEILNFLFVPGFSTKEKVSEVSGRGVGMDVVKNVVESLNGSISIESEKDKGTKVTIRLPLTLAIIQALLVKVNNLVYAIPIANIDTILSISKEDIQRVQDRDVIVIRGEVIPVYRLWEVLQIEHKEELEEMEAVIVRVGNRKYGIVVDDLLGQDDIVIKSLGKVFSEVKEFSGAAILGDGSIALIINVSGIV

pKd: 6.70
Substance: CheA (from UniProt Q56310)
